Laboratory results: patent US20110171220A1 (published 2011)

Biological target: Monomeric soluble human PD-1 (human, UniProt Q15116 25-170)
Experiment: SPR; pH 7.4

Monomeric soluble human PD-1, sequence (Q15116 25-170): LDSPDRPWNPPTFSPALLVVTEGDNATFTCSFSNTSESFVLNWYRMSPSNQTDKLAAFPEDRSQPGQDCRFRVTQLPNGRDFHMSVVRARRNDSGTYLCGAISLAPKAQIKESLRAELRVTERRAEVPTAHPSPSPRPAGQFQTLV

| koff | Binder |
| --- | --- |
| ~0.4 s⁻¹ | Clone 10 anti-PD-1 antibody (antibody, V domains shown) VH: DVQLQESGPGLVKPSQSLSLTCTVTGYSITSDYAWNWIRQFPGNKLEWMGYINYSGSTSYNPSLKSRISITRDTSKNQFFLQLNSVTTEDTATYYCARWIGSSAWYFDVWGAGTTVTV VL: DVLMTQTPLSLPVSLGDQASISCRSGQNIVHSNGNTYLEWYLQKPGQSPKLLIYKVSNRFFGVPDRISGSGSGTDFTLKISRVEAEDLGVYFCFQGSHVPFTFGSGTKLEIK |
| ~0.0027 s⁻¹ | Clone 2 anti-PD-1 antibody (antibody, V domains shown) VH: QVQLQQPGAELVKPGASVKLSCKASGYTFTTYYLYWVRQRPGQGLEWIGGINPSNGGTNFNEKFKSKATLTVDKSSSTAYMQLNSLTSEDSAVYYCTRRDYRYDRGFDYWGQGTSVTV VL: DIVLTQSPASLAVSLGQRATISCRASKSVSTSGFNYIHWYQQKPGQPPKLLIYLASNLESGVPARFSGSGSGTDFTLNIHPVEDEDAATYYCQHSRELPLTFGAGTKLEIK |
| ~0.0013 s⁻¹ | Clone 19 anti-PD-1 antibody (antibody, V domains shown) VH: QVQLQQSGAELVKPGASVKMSCKAFGYTFTTYPIEWMKQNHGKSLEWIGNFHPYNDDTKYNEKFKGKAKLTVEKSSTTVYLELSRLTSDDSAVYYCARENYGSHGGFVYWGQGTLVTV VL: ENVLTQSPAIMSASPGEKVTMTCRASSSVISSYLHWYQQKSGASPKLWIYSTSNLASGVPDRFSGSGSGTSYSLTISSVEAEDAATYYCQQYNGYPLTFGAGTKLEIK |
